US20130177528A1, “COMPOSITIONS AND METHODS FOR INHIBITING VIRAL INFECTION” (WESTERN UNIVERSITY OF HEALTH SCIENCES, priority 2011, published 2013)

What was measured:
HSV-1 (KOS) gL86 [1] = assay: HSV-1 infection of HeLa cells at MOIs 5, 15 and 25 PFU/cell (Example 6); assay type: cell-based, herpes simplex virus type-1; conditions: virus pre-incubated 180 min, 6 hr
Method: HeLa cells were each grown to 100% confluency in 96-well plates. The β-galactosidase-expressing recombinant virus HSV-1 (KOS) HSV-1 gL86 […] was pre-incubated at MOIs of 5 (FIG. 10, panel A), 15 (FIG. 10, panel B) and 25 (FIG. 10, panel C) plaque-forming units per cell (PFU) with VCN (VN), CN or ADAM15 (Ad15) at the concentrations indicated or mock treated with 1 X phosphate saline buffer for 180 min at room temperature. After 6 hr, the cells were washed, permeabilized and incubated with ONPG substrate (3.0 mg/ml). The β-gal enzymatic activity was measured at an optical density of 410 nm (OD 410). Mock treated HSV-1 with PBS was used as a […] control ((+) infected with virus alone; (−) uninfected control).

HSV-1 (KOS) gL86 [2] = assay: HSV-1 infection of HeLa, Vero and 293T cells, virus pre-incubated (Example 3); assay type: cell-based, herpes simplex virus type-1; conditions: virus 30 pfu/cell pre-incubated 90 min, 6 hr
Method: CN blocks herpes simplex virus type-1 (HSV-1) infection of natural target cells. HeLa, Vero and 293T cells were each grown to 100% confluency in 96-well plates. The β-galactosidase-expressing recombinant virus HSV-1 (KOS) HSV-1 gL86 (30 pfu/cell) was pre-incubated with CN at the concentration indicated in FIG. 7 or mock treated with 1 X phosphate saline buffer for 90 min at room temperature. After 6 hr, the cells were washed, permeabilized and incubated with ONPG substrate (3.0 mg/ml). The β-gal enzymatic activity was measured at an optical density of 410 nm (OD 410). Each value shown in FIG. 7 is the mean of three or more determinations (±SD). Mock treated HSV-1 with PBS was used as a control. HSV-1 infection of HeLa (panel A) and Vero and 293T cells (panel B) was blocked by CN.

B1: contortrostatin (protein)
chain: DAPANPCCDAATCKLTTGSQCADGLCCDQCKFMKEGTVCRRARGDDLDDYCNGISAGCPRNPFHA
HSV-1 (KOS) gL86 [1]
  HSV-1 infection of HeLa cells, blocking and rank order (β-gal activity, OD 410): blocked by CN >VCN >ADAM15
HSV-1 (KOS) gL86 [2]; 293T cells
  HSV-1 infection (β-gal activity, OD 410): blocked
HSV-1 (KOS) gL86 [2]; HeLa cells
  HSV-1 infection (β-gal activity, OD 410): blocked
HSV-1 (KOS) gL86 [2]; Vero cells
  HSV-1 infection (β-gal activity, OD 410): blocked
